US20240301040A1

Legend:
[1] = molecular target: IL-1 receptor (IL-1R) (rat) (UniProt Q02955); assay: co-immunoprecipitation, adult control rats, hippocampal synaptosomes, mean±SEM
[2] = molecular target: IL-1 receptor (IL-1R) (rat) (UniProt Q02955); assay: co-immunoprecipitation, adult ENV-expressing rats, hippocampal synaptosomes, mean±SEM

UniProt Q02955, sequence (Q02955 20-576): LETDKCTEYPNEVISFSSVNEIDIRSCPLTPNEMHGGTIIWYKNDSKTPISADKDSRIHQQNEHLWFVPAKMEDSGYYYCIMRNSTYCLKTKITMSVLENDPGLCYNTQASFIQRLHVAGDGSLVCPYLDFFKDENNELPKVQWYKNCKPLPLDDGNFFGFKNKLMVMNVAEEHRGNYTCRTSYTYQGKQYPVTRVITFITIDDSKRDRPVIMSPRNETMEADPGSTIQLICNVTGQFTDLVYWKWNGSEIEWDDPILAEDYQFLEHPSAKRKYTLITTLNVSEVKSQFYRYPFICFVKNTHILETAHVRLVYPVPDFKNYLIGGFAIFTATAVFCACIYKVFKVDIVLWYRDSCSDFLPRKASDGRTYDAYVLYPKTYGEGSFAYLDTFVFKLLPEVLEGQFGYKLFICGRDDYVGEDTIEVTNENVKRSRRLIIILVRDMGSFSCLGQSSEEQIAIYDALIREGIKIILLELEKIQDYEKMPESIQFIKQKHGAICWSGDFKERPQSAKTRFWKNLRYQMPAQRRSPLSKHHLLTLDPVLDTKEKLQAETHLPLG

co-IP GluN2A/IL-1R (normalised to control animals) [1] | co-IP GluN2A/IL-1R (normalised to control animals) [2] | co-IP GluN2B/IL-1R (normalised to control animals) [1] | co-IP GluN2B/IL-1R (normalised to control animals) [2] | Substance
1 | 1.04 |  |  | GluN2A-NMDAR (GluN2A-containing NMDA receptor) (from UniProt Q00959 23-1464)
 |  | 1 | 0.95 | GluN2B-NMDAR (GluN2B-containing NMDA receptor) (from UniProt Q00960 27-1482)
